Values quoted from earlier work as cited in patent US20190298804A1, “ACTIVATION OF THE ENDOGENOUS ILEAL BRAKE HORMONE PATHWAY FOR ORGAN REGENERATION AND RELATED COMPOSITIONS, METHODS OF TREATMENT, DIAGNOSTICS, AND REGULATORY SYSTEMS” (VOLANT HOLDINGS GMBH, priority 2013, published 2019).

Test system: MIN-6 cells
Settings: immunoprecipitation and western blotting

B1: BTC: member of the epidermal growth factor family (protein, UniProt P35070 32-111, looked up)
Betacellulin: DGNSTRSPETNGLLCGDPEENCAATTTQSKRKGHFSRCPKQYKHYCIKGRCRFVVAEQTPSCVCDEGYIGARCERVDLFY
modifications: Betacellulin
notes: member of the epidermal growth factor family
- phosphorylation of EGF receptors: induced phosphorylation of only ErbB-1 and ErbB-2
